From publication PMC11272584 (Nature Metabolism, 2024)

What was measured:
GIPR T168A = molecular target: T1, GIPR T168A (Homo sapiens, UniProt P48546, T168A); assay: cAMP accumulation; assay type: cell-based
T1 construct: host or cells: HEK293
T1 sequence (P48546 22-466 T168A): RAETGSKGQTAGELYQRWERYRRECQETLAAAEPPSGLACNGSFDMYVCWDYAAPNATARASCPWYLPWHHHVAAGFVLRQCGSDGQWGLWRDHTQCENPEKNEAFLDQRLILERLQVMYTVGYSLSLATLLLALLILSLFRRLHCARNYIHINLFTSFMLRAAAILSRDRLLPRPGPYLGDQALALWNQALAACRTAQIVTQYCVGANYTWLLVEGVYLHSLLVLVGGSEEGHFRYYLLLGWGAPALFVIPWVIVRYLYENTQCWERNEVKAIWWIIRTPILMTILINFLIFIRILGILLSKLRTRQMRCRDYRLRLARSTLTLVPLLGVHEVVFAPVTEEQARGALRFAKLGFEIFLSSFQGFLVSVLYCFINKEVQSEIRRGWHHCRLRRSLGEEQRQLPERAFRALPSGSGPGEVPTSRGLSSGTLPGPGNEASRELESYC
Procedure: (§1) HEK293 (CRL-1573, American Type Culture Collection) and β-arrestin 1/2 knockout cells, generated from HEK293A[48], were used for cAMP measurement, homologues competition binding and β-arrestin 2 recruitment. […] Both cell lines were cultured at 5% CO2 at 37 °C in Roswell Park Memorial Institute GlutaMAX-I supplemented with 10% fetal bovine serum, 180 units ml^−1 penicillin, and 45 g ml^−1 streptomycin. For the cAMP and binding experiments, cells were transfected with the calcium phosphate precipitation method[49].
(§2) cAMP production was measured with the DiscoverX Hithunter cAMP assay according to the manufacturer’s protocol (DiscoverX). […] On the day of the assay, the cells were washed twice with HEPES-buffered saline (HBS) and incubated with HBS and 1 mM 3-isobutyl-1-methylxanthine for 30 min at 37 °C. […] After the incubation, the assay medium was removed from the plate and the cells were washed with 30 µl PBS and treated with 40 µl enzyme donor–lysis buffer–chemiluminescent reagents and 10 µl cAMP antibodies for 60 min before 40 µl enzyme acceptor solution added. After a 3-h incubation on a shaking table in the dark, the cAMP accumulation was measured based on luminescence with a Perkin Elmer EnVision 2104 Multilabel Microplate Reader.

GIPR variants (groups) [1] = assay: β-arrestin 2 recruitment (BRET); details: for In vitro groups (β-arrestin): arr part of the in vitro group; for Beta, Barr: in vitro β-arrestin recruitment per GIPR variant;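 for all read-outs here: BRET readout of β-arrestin 2 recruitment in transiently transfected HEK293 cells expressing WT GIPR or a GIPR variant plus GPCR kinase 2, Rluc8 donor and citrine acceptor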
Procedure: Both cell lines were cultured at 5% CO2 at 37 °C in Roswell Park Memorial Institute GlutaMAX-I supplemented with 10% fetal bovine serum, 180 units ml^−1 penicillin, and 45 g ml^−1 streptomycin. […] The polyethyleneimine (PEI) transfection method was used for the β-arrestin 2 recruitment assays[50], endosomal signalling and basal receptor localization assays, while the lipofectamine transfection method was used for the internalization assay.
Measurement of β-arrestin 2 recruitment was performed with a BRET assay. Two days before the assay, the HEK293 cells were transiently transfected with either WT GIPR or the GIPR variants together with the donor Rluc8-Arrestin-3-Sp1, the acceptor mem-linker-citrine-SH3 and the GPCR kinase 2 to facilitate β-arrestin 2 recruitment. On assay day, the cells were washed with PBS and resuspended in PBS supplemented with 5 mmol l^−1 glucose. Subsequently, 85 µl of the cell suspension was transferred to a white 96-well plate and 10 µl of 50 µM coelenterazine-h was added.

GIPR variants (groups) [2] = assay: cAMP accumulation; assay type: cell-based, human; details: for In vitro groups (cAMP): cAMP part of the in vitro group; for percentage_camp: cAMP production compared with WT; for Beta, cAMP: in vitro cAMP production per GIPR variant
GIPR R183Q = molecular target: T2, GIPR R183Q (Homo sapiens, UniProt P48546, R183Q); assay: cAMP accumulation; assay type: cell-based
T2 construct: host or cells: HEK293
T2 sequence (P48546 22-466 R183Q): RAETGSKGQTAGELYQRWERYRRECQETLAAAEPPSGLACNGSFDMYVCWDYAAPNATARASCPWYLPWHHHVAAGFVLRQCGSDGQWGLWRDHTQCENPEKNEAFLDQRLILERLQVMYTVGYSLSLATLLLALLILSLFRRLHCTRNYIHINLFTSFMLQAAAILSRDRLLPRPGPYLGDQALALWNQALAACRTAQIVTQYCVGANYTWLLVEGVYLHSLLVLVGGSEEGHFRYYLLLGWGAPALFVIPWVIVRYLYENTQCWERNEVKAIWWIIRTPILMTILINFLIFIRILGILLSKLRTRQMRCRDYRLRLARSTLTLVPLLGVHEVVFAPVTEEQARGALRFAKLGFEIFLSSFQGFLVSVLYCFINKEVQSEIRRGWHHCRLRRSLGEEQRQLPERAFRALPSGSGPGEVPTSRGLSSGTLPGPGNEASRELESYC
Procedure: as §1, §2

GIPR A185V = molecular target: T3, GIPR A185V (Homo sapiens, UniProt P48546, A185V); assay: cAMP accumulation; assay type: cell-based
T3 construct: host or cells: HEK293
T3 sequence (P48546 22-466 A185V): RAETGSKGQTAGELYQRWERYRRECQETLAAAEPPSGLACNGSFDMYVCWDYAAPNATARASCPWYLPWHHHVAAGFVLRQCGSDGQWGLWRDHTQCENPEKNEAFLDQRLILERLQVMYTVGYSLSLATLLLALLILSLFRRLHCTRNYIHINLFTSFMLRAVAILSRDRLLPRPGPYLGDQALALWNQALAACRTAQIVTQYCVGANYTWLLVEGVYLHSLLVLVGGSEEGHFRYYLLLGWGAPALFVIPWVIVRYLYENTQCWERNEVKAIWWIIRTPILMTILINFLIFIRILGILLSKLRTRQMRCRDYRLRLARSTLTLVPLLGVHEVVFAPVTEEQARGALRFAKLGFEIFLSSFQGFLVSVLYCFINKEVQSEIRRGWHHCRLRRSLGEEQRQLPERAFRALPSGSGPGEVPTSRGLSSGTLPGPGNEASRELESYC
Procedure: as §1, §2

GIPR R190Q = molecular target: T4, GIPR R190Q (Homo sapiens, UniProt P48546, R190Q); assay: cAMP accumulation; assay type: cell-based
T4 construct: host or cells: HEK293
T4 sequence (P48546 22-466 R190Q): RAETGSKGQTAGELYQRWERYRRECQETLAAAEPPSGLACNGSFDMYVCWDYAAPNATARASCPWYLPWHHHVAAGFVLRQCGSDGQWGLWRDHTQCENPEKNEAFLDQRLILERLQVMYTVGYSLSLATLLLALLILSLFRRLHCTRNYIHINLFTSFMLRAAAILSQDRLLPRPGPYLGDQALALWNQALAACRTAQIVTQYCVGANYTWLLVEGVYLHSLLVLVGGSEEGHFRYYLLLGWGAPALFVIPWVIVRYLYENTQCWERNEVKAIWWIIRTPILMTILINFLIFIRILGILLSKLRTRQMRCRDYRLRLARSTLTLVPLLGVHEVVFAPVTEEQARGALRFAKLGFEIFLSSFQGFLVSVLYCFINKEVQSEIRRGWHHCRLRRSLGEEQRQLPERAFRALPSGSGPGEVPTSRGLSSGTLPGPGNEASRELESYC
Procedure: as §1, §2

GIPR P195R = molecular target: T5, GIPR P195R (Homo sapiens, UniProt P48546, P195R); assay: cAMP accumulation; assay type: cell-based
T5 construct: host or cells: HEK293
T5 sequence (P48546 22-466 P195R): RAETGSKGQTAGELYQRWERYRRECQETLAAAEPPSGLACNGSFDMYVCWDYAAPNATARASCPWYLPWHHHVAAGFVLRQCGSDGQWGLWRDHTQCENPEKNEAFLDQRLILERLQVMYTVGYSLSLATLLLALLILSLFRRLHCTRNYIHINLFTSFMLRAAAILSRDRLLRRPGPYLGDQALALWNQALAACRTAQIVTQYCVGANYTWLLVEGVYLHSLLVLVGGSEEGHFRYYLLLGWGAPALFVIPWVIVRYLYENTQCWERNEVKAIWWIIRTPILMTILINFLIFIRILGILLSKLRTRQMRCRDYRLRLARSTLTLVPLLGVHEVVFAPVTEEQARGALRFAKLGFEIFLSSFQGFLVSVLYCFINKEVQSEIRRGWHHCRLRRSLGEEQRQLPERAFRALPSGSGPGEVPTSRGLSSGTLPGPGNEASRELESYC
Procedure: as §1, §2

B1: T168A (protein)
chain: RAETGSKGQTAGELYQRWERYRRECQETLAAAEPPSGLACNGSFDMYVCWDYAAPNATARASCPWYLPWHHHVAAGFVLRQCGSDGQWGLWRDHTQCENPEKNEAFLDQRLILERLQVMYTVGYSLSLATLLLALLILSLFRRLHCARNYIHINLFTSFMLRAAAILSRDRLLPRPGPYLGDQALALWNQALAACRTAQIVTQYCVGANYTWLLVEGVYLHSLLVLVGGSEEGHFRYYLLLGWGAPALFVIPWVIVRYLYENTQCWERNEVKAIWWIIRTPILMTILINFLIFIRILGILLSKLRTRQMRCRDYRLRLARSTLTLVPLLGVHEVVFAPVTEEQARGALRFAKLGFEIFLSSFQGFLVSVLYCFINKEVQSEIRRGWHHCRLRRSLGEEQRQLPERAFRALPSGSGPGEVPTSRGLSSGTLPGPGNEASRELESYC
GIPR T168A
  Efficacy at 100pmol (cAMP): 0.2182
GIPR variants (groups) [1]
  In vitro groups (β-arrestin): LoF_arr
  Beta, Barr: 0.2206
GIPR variants (groups) [2]
  In vitro groups (cAMP): LoF_camp
  percentage_camp: <50% cAMP
  Beta, cAMP: 0.2182

B2: R183Q (protein)
chain: RAETGSKGQTAGELYQRWERYRRECQETLAAAEPPSGLACNGSFDMYVCWDYAAPNATARASCPWYLPWHHHVAAGFVLRQCGSDGQWGLWRDHTQCENPEKNEAFLDQRLILERLQVMYTVGYSLSLATLLLALLILSLFRRLHCTRNYIHINLFTSFMLQAAAILSRDRLLPRPGPYLGDQALALWNQALAACRTAQIVTQYCVGANYTWLLVEGVYLHSLLVLVGGSEEGHFRYYLLLGWGAPALFVIPWVIVRYLYENTQCWERNEVKAIWWIIRTPILMTILINFLIFIRILGILLSKLRTRQMRCRDYRLRLARSTLTLVPLLGVHEVVFAPVTEEQARGALRFAKLGFEIFLSSFQGFLVSVLYCFINKEVQSEIRRGWHHCRLRRSLGEEQRQLPERAFRALPSGSGPGEVPTSRGLSSGTLPGPGNEASRELESYC
GIPR R183Q
  Efficacy at 100pmol (cAMP): 0
GIPR variants (groups) [1]
  In vitro groups (β-arrestin): LoF_arr
  Beta, Barr: 0.03853
GIPR variants (groups) [2]
  In vitro groups (cAMP): LoF_camp
  percentage_camp: <50% cAMP
  Beta, cAMP: 0

B3: A185V (protein)
chain: RAETGSKGQTAGELYQRWERYRRECQETLAAAEPPSGLACNGSFDMYVCWDYAAPNATARASCPWYLPWHHHVAAGFVLRQCGSDGQWGLWRDHTQCENPEKNEAFLDQRLILERLQVMYTVGYSLSLATLLLALLILSLFRRLHCTRNYIHINLFTSFMLRAVAILSRDRLLPRPGPYLGDQALALWNQALAACRTAQIVTQYCVGANYTWLLVEGVYLHSLLVLVGGSEEGHFRYYLLLGWGAPALFVIPWVIVRYLYENTQCWERNEVKAIWWIIRTPILMTILINFLIFIRILGILLSKLRTRQMRCRDYRLRLARSTLTLVPLLGVHEVVFAPVTEEQARGALRFAKLGFEIFLSSFQGFLVSVLYCFINKEVQSEIRRGWHHCRLRRSLGEEQRQLPERAFRALPSGSGPGEVPTSRGLSSGTLPGPGNEASRELESYC
GIPR variants (groups) [1]
  In vitro groups (β-arrestin): WT-like_arr
  Beta, Barr: 0.8905
GIPR A185V
  Efficacy at 100pmol (cAMP): 0.2646
GIPR variants (groups) [2]
  In vitro groups (cAMP): LoF_camp
  percentage_camp: <50% cAMP
  Beta, cAMP: 0.2646

B4: R190Q (protein)
chain: RAETGSKGQTAGELYQRWERYRRECQETLAAAEPPSGLACNGSFDMYVCWDYAAPNATARASCPWYLPWHHHVAAGFVLRQCGSDGQWGLWRDHTQCENPEKNEAFLDQRLILERLQVMYTVGYSLSLATLLLALLILSLFRRLHCTRNYIHINLFTSFMLRAAAILSQDRLLPRPGPYLGDQALALWNQALAACRTAQIVTQYCVGANYTWLLVEGVYLHSLLVLVGGSEEGHFRYYLLLGWGAPALFVIPWVIVRYLYENTQCWERNEVKAIWWIIRTPILMTILINFLIFIRILGILLSKLRTRQMRCRDYRLRLARSTLTLVPLLGVHEVVFAPVTEEQARGALRFAKLGFEIFLSSFQGFLVSVLYCFINKEVQSEIRRGWHHCRLRRSLGEEQRQLPERAFRALPSGSGPGEVPTSRGLSSGTLPGPGNEASRELESYC
GIPR R190Q
  Efficacy at 100pmol (cAMP): 0.008847
GIPR variants (groups) [1]
  In vitro groups (β-arrestin): LoF_arr
  Beta, Barr: 0.1131
GIPR variants (groups) [2]
  In vitro groups (cAMP): LoF_camp
  percentage_camp: <50% cAMP
  Beta, cAMP: 0.008847

B5: P195R (protein)
chain: RAETGSKGQTAGELYQRWERYRRECQETLAAAEPPSGLACNGSFDMYVCWDYAAPNATARASCPWYLPWHHHVAAGFVLRQCGSDGQWGLWRDHTQCENPEKNEAFLDQRLILERLQVMYTVGYSLSLATLLLALLILSLFRRLHCTRNYIHINLFTSFMLRAAAILSRDRLLRRPGPYLGDQALALWNQALAACRTAQIVTQYCVGANYTWLLVEGVYLHSLLVLVGGSEEGHFRYYLLLGWGAPALFVIPWVIVRYLYENTQCWERNEVKAIWWIIRTPILMTILINFLIFIRILGILLSKLRTRQMRCRDYRLRLARSTLTLVPLLGVHEVVFAPVTEEQARGALRFAKLGFEIFLSSFQGFLVSVLYCFINKEVQSEIRRGWHHCRLRRSLGEEQRQLPERAFRALPSGSGPGEVPTSRGLSSGTLPGPGNEASRELESYC
GIPR P195R
  Efficacy at 100pmol (cAMP): 0.117
GIPR variants (groups) [1]
  In vitro groups (β-arrestin): WT-like_arr
  Beta, Barr: 0.8561
GIPR variants (groups) [2]
  In vitro groups (cAMP): LoF_camp
  percentage_camp: <50% cAMP
  Beta, cAMP: 0.117
